# Molecular target: SARS-CoV 2P DS S (SARS-CoV) (UniProt P59594)
# Experiment: negative-stain electron microscopy
substance,measurement,value
SARS-CoV 2P DS S (from UniProt P59594 14-1195) (domain or fragment),stoichiometry N,3

# From paper PMC7302216
